≈ marks a conversion by molar mass, not a printed value. Where “and” joins values, the source holds several entries; their conditions need not be identical. Equal entries are not always repeated. Ends that are not written are not given here. Peptide text beside a SMILES is read from it.
How the values were obtained:
[1] = target: T1, LepB Δ2-76 His-SUMO (Escherichia coli signal peptidase I) (Escherichia coli, UniProt P00803); test: biochemical; assay type: binding
T1 construct: purchased Sapphire Bioscience
Description: Surface plasmon resonance (SPR) analysis on a Pioneer FE system (Sartorius, Göttingen, Germany) was used to determine the on- and off-rates of custom peptides (Mimotopes, Mulgrave, VIC, Australia) with purchased LepB (Sapphire Bioscience, Redfern, NSW, Australia) ([9]). Briefly, LepB Δ2-76 His-SUMO was immobilized onto a CDH chip (Sartorius, Göttingen, Germany) onto flow cells 1 and 3 by an amine coupling reaction using 0.2 M 1-ethyl-3-[(3-dimethylamino)propyl]-carbodiimide (EDC) and 0.05 M N-hydroxysuccinimide (NHS). The EDC-NHS mix was caused to flow over at 15 μL/min for 100 s, LepB was injected at 10 μL/min for 10 min, and then ethanolamine was caused to flow over at 10 μL/min for 10 min. Flow cell 2 was used as a reference cell, and no LepB was injected over this cell. The assay was performed using a OneStep assay method with 75% of the loop. Peptides were caused to flow over the flow cells at a concentration of 50 μM at a flow rate of 50 μL/min with a dissociation period of 180 s. A regeneration cycle at a flow rate of 50 μL/min for 3 min with Tris-EDTA (TE) was completed after every cycle. Data were collected in triplicate, and analysis was completed with the Qdat analysis software (Sartorius, Göttingen, Germany; see Fig. S1 in the supplemental material).

LepB Δ2-76 = target: T2, LepB Δ2-76 (Escherichia coli, UniProt P00803); test: biochemical
T2 construct: made in house; host or cells: E. coli BL21(DE3)
Protocol: The cleavage of the fluorescent peptide, Dabcyl-[…]-Edans, by LepB leads to an increase in relative fluorescence over time. If the ability of LepB to cleave this peptide is inhibited, the increase in relative fluorescence per second should decrease in a concentration-dependent manner.
A reaction in a 100-μL reaction mixture in phosphate-buffered saline (PBS) (pH 7.4) containing 0.1% Triton X-100 was initiated by adding 450 nM LepB Δ2-76 to a black, clear-bottom 96-well plate (Corning, Corning, NY, USA). In triplicate, wells contained a 2-fold serial dilution of the peptide being tested from 0.5 mg/mL and 10 μM fluorescent peptide, Dabcyl-[…]-Edans (Mimotopes, Mulgrave, VIC, Australia). While the peptide containing the two fluorophores is intact, the Edans emission is quenched by Dabcyl through FRET. However, once the peptide is cleaved by LepB, the fluorophores are no longer in close enough proximity for the transfer of energy and the fluorescence emission of Edans is recorded. The cleavage of the fluorescent peptide by LepB was recorded using an excitation wavelength of 340 nm and an emission wavelength of 490 nm recorded every 2 min for 30 min in a Tecan Infinite 200 Pro plate reader. Data were analyzed using the formula [(RFU2 − RFU1)/(time2 − time1)] = RFU/s on the linear portion of the reaction (where RFU stands for relative fluorescent units), and the absolute IC50 was determined using the simple linear regression analysis on Prism 9.

[2] = tested on: E. coli MG1655 (empty pBAD) and E. coli BL21(DE3) (empty pET15b); test: MIC assay against E. coli; assay type: cell-based, Escherichia coli; details: rich (Mueller-Hinton) and M9 minimal media, with or without subinhibitory DMSO (5%); overnight 37°C; peptides 08 and 10 from 0.5 mg/mL, 11 from 1 mg/mL
Protocol: (§1) The resistance to the peptides was determined using MIC methods as previously described ([31]). Briefly, 5 × 10^5 cells were added to a 96-well plate which contained a peptide 2-fold serially diluted in either M9 minimal medium containing 5% DMSO and 0.2% glucose or Mueller-Hinton medium containing 5% DMSO. Plates were incubated overnight at 37°C, and the MIC result was scored as the last set of wells that contained no growth of bacteria. Bacteria tested were E. coli MG1655 containing an empty pBAD plasmid, E. coli BL21(DE3) containing an empty pET15b plasmid, S. aureus FDA209, and S. aureus USA300. Peptides 08 and 10 were tested from 0.5 mg/mL, and peptide 11 was tested from 1 mg/mL.

[3] = tested on: Staphylococcus aureus USA300; assay type: cell-based; details: strain USA300, rich medium, subinhibitory DMSO (5%), overnight 37°C
Protocol: as §1

[4] = tested on: Staphylococcus aureus FDA209; assay type: cell-based; details: strain FDA209, rich medium, subinhibitory DMSO (5%), overnight 37°C
Protocol: as §1

[5] = target: LepB Δ2-76 (Escherichia coli (strain DH5α)) (UniProt P00803)
[6] = target: LepB Δ2-76 His-SUMO (Escherichia coli) (UniProt P00803); test: SPR; LepB Δ2-76 His-SUMO amine-coupled (EDC/NHS) to a CDH chip, Pioneer FE; OneStep method with 75% of the loop; peptides flowed at 50 μM, 50 μL/min, 180 s dissociation; regeneration with Tris-EDTA; triplicate

Row | IC50 of LepB cleavage of the fluorescent peptide Dabcyl-DAPPAKAA-Edans (FRET enzyme assay) [5] | koff [6] | kon [6] | Molecule | Kd [1] | IC50 (LepB Δ2-76) | also measured
1 | – | – | – | TWAAIE [Peptide 08] | 0.7 ± 0.35 µM | 647 µM | –
2 | – | – | – | GGGTWAAIE [Peptide 06] | 17.3 ± 0.2 µM | 4520 µM | –
3 | – | – | – | VGGGTWAAIEEGKL [Peptide 04] | 8.83 ± 2.59 µM | 1680 µM | –
4 | – | – | – | GGTWAAFE [Peptide 05] | – | 967 µM | –
5 | – | – | – | TWAAFN [Peptide 07] | 5.38 ± 0.2 µM | 1970 µM | –
6 | – | – | – | GGTWAAIE [Peptide 10] | – | – | MIC [2]: No MIC was observed; Kd off-rate ([1]; SPR OneStep, LepB amine-coupled to CDH chip, peptide 50 μM, dissociation 180 s, mean ± standard error, triplicate): 0.00421 s⁻¹ and 0.00421 ± 0.00049 s⁻¹; Ka on-rate ([1]; SPR OneStep, Pioneer FE, LepB amine-coupled to CDH chip, peptide 50 μM, flow 50 μL/min, mean ± standard error, triplicate): 4770 ± 590 M⁻¹ s⁻¹
7 | – | – | – | GGGTWAAFEEGK [Peptide 01] | 10.3 µM | 1600 µM | –
8 | – | – | – | C[C@H](N)C(=O)N[C@@H](C)C(=O)N[C@@H](Cc1ccccc1)C(=O)N[C@@H](CCC(=O)O)C(=O)O [Peptide 11] (H-AAFE-OH) | 18.5 ± 0.62 µM | 3790 µM | MIC [3]: 1000 µg/mL (≈ 2290 µM); MIC [4]: 1000 µg/mL (≈ 2290 µM)
9 | – | – | – | GGTWAAFNDV [Peptide 03] | 8.71 ± 2.14 µM | 1160 µM | –
10 | – | – | – | VGGGTWAAFETL [Peptide 02] | 12.8 ± 2.55 µM | 1010 µM | –
11 | 810 µg/mL | – | – | GGTWAAFE [peptide 05] | – | – | –
12 | 1390 µg/mL | 0.321 s⁻¹ | 60400 M⁻¹ s⁻¹ | TWAAFN [peptide 07] | – | – | –
13 | 2340 µg/mL | 0.17 s⁻¹ | 26400 M⁻¹ s⁻¹ | VGGGTWAAIEEGKL [peptide 04] | – | – | –
14 | 1660 µg/mL | 0.442 s⁻¹ | 15900 M⁻¹ s⁻¹ | AAFE [peptide 11] | – | – | –
15 | 3890 µg/mL | 0.0208 s⁻¹ | 1200 M⁻¹ s⁻¹ | GGGTWAAIE [peptide 06] | – | – | –
16 | 1930 µg/mL | 0.0434 s⁻¹ | 4440 M⁻¹ s⁻¹ | GGGTWAAFEEGK [peptide 01] | – | – | –
17 | 1210 µg/mL | 0.947 s⁻¹ | 146000 M⁻¹ s⁻¹ | GGTWAAFNDV [peptide 03] | – | – | –
18 | 1220 µg/mL | 0.0147 s⁻¹ | 1140 M⁻¹ s⁻¹ | VGGGTWAAFETL [peptide 02] | – | – | –
19 | 446 µg/mL | 0.00239 s⁻¹ | 2500 M⁻¹ s⁻¹ | TWAAIE [peptide 08] | – | – | –
